The target of test [1] is AV2 protein of tomato leaf curl Palampur virus, untagged, in N. benthamiana leaves (Tomato leaf curl Palampur virus). In words: SDS-PAGE and western blot; leaf extracts of N. benthamiana (PVX-infiltrated at 14 dpi, ToLCPalV-infected, TRV-infiltrated), boiled 5 minutes, 10% SDS-PAGE, detection with AV2 antiserum; dimer told from the band's size. A general note: A western blot detects proteins with antibodies after separation by electrophoresis.

In test [2] the target is AV2Δ10N, untagged, from PVX-AV2Δ10N in N. benthamiana leaves (Tomato leaf curl Palampur virus). Described as above.

Substance “AV2 protein of tomato leaf curl Palampur virus, untagged, in N. benthamiana leaves (natural protein)” had a stoichiometry N in test [1] of 2.
“AV2Δ10N, untagged, from PVX-AV2Δ10N in N. benthamiana leaves (domain or fragment)”: the stoichiometry N in test [2] was 2.

Broadly, the stoichiometry N is the number of molecules, sites or subunits per partner or assembly.

Source of the values: paper PMC5775426.
